US20180244796A1 (CARSGEN THERAPEUTICS, published 2018)

B5: human mesothelin on PANC-1-MSLN cells (other)
chain: APLADYKDDDDKEVEKTACPSGKKAREIDESLIFYKKWELEACVDAALLATQMDRVNAIPFTYEQLDVLKHKLDELYPQGYPESVIQHLGYLFLKMSPEDIRKWNVTSLETLKALLEVNKGHEMSPQVATLIDRFVKGRGQLDKDTLDTLTAFYPGYLCSLSPEELSSVPPSSIWAVRPQDLDTCDPRQLDVLYPKARLAFQNMNGSEYFVKIQSFLGGAPTEDLKALSQQNVSMDLATFMKLRTDAVLPLTVAEVQKLLGPHVEGLKAEERHRPVRDWILRQRQDDLDTLGLGLQGGIPNGYLVLDLSMQEALS
notes: also called mesothelin at cell surface
B8: purified human mesothelin protein (recombinant, 6xHis tag) (other)
chain: EVEKTACPSGKKAREIDESLIFYKKWELEACVDAALLATQMDRVNAIPFTYEQLDVLKHKLDELYPQGYPESVIQHLGYLFLKMSPEDIRKWNVTSLETLKALLEVNKGHEMSPQVATLIDRFVKGRGQLDKDTLDTLTAFYPGYLCSLSPEELSSVPPSSIWAVRPQDLDTCDPRQLDVLYPKARLAFQNMNGSEYFVKIQSFLGGAPTEDLKALSQQNVSMDLATFMKLRTDAVLPLTVAEVQKLLGPHVEGLKAEERHRPVRDWILRQRQDDLDTLGLGLQGHHHHHH
notes: also called hu-mesothelin; human mesothelin recombinant protein

Tests used:
[1] = target: T1, BSA (bovine serum albumin) (bovine, UniProt P02769 25-607); experiment: single phage ELISA, 100 ng/well coated BSA, anti-M13 detection
T1 construct: also called negative control protein BSA
T1 sequence (P02769 25-607 limits assumed): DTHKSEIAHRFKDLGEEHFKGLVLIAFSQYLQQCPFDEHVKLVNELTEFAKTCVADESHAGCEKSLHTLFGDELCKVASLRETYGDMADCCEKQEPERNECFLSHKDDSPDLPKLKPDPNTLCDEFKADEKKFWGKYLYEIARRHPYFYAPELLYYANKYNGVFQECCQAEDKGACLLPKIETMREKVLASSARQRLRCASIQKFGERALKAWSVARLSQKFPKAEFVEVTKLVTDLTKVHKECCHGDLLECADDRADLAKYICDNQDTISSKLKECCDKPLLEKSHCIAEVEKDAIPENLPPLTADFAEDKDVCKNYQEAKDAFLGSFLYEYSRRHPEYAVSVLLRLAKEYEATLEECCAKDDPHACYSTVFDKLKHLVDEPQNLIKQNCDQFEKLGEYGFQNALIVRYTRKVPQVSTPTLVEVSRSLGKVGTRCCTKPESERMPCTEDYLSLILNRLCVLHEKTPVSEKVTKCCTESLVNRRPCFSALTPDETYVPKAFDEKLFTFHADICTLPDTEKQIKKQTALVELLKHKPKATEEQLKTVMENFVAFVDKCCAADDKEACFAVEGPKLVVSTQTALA
Protocol: 96 clones were randomly selected in the clones obtained from the fourth round of screening and their binding capability to human mesothelin was analyzed by single phage ELISA (enzyme-linked immunosorbent assay). For this purpose, each single colony was inoculated in 300 μl of 2×YT/ampicillin medium (containing 2% glucose) in a 96-well deep-well plate and cultured with shaking at 37° C. and 250 rpm for 16 hours. 20 μl of culture was inoculated into 500 μl of 2×YT/ampicillin medium (containing 0.1% glucose) and shaken at 37° C. and 250 rpm for 1.5 hours. To prepare the helper phage solution, 75 μl of M13KO7 (titer of 3×10¹² pfu/ml) was taken and mixed into 15 ml of 2×YT medium and added into a culture plate at 50 μl/well, and incubated at 37° C. and 150 rpm for 30 minutes. And then prepared kanamycin solution (180 μl of 50 mg/ml kanamycin was taken and added into 15 ml of 2×YT medium) was added at 50 μl/well and incubated with shaking for 16 hours at 37° C. and 250 rpm. […]
For single phage ELISA, 100 ng/well of antigen human mesothelin and negative control protein BSA (100 μl/well) were used in a 96-well MediSorp ELISA plate (purchased from Nunc) and coated overnight at 4° C. […] Extinction values were measured at 450 nm with an enzyme-linked immunosorbent (Bio-Rad).

[2] = target: T2, scFv-P3F2-Fc (human, UniProt P01857-1 99-330 = IgG part, limits assumed); experiment: ELISA, scFv-Fc against MSTL-R1A-mFc; x axis con.(nM), the sheet does not say whose concentration [right panel]
T2 construct: domain: Fc fragment; scFv cloned NheI/BamHI into pCMV-V5-Fc, expressed in HEK-293F, protein A purified; also called P3F2 single chain antibody; P3F2 single chain antibod

[3] = target: T3, scFv-P1A6E-Fc (human, UniProt P01857-1 99-330 = IgG part, limits assumed); experiment: ELISA, scFv-Fc against MSTL-R1A-mFc; x axis con.(nM), the sheet does not say whose concentration [left panel]
T3 construct: domain: Fc fragment; scFv cloned NheI/BamHI into pCMV-V5-Fc, expressed in HEK-293F, protein A purified; also called P1A6E single chain antibody; antibody-Fc fusion protein scFv-P1A6E-Fc

[4] = target: B8; experiment: flow cytometry; CAR T cells stained with biotinylated human mesothelin recombinant protein and PE-labeled streptavidin
Protocol: Infected CTL cells were detected by flow cytometry on day 8 of culture for the expression of different chimeric antigen receptors. Firstly, the infected CAR T cells were incubated with biotinylated human mesothelin recombinant protein for 1 h at 37° C., washed in D-PBS twice and then incubated with PE-labeled streptavidin for 40 min at 37° C. After washed with D-PBS for 3 times, the ratio of positive cells was determined by flow cytometry. Uninfected T lymphocytes was used as a negative control, the positive rates of virus-infected T cells expressing different chimeric antigen receptors are shown in Table 3.

[5] = target: B5; experiment: cell-based or functional assay
[6] = target: T2, scFv-P3F2-Fc; experiment: ELISA, scFv-Fc against MSTL-R1AB-mFc; x axis con.(nM), the sheet does not say whose concentration [right panel]
[7] = target: T3, scFv-P1A6E-Fc; experiment: ELISA, scFv-Fc against MSTL-R1AB-mFc; x axis con.(nM), the sheet does not say whose concentration [left panel]
[8] = target: T3, scFv-P1A6E-Fc; experiment: flow cytometry on PANC-1-MSLN cells, 20 ug/ml antibody, goat anti-human-FITC
Protocol: (§1) Each of antibodies scFv-P1A6E-Fc and scFv-P3F2-Fc was analyzed for binding ability to mesothelin at cell surface by Fluorescence Activated Cell Sorter (FACS) (Guava 8HT, supplied by Millipore).
(§2) 4) antibodies P1A6E and P3F2 to be tested were added into the two experimental groups, respectively, adding antibodies ss and C10 (purchased from Shanghai Rui Jin Biotechnology Co., Ltd.) were added into two positive control groups added as positive controls, and another control group is PBS blank control without antibody. The final concentration of each antibody was 20 μg/ml. 100 μl was added to each tube, and incubated in an ice bath for 45 minutes.

[9] = target: T2, scFv-P3F2-Fc; experiment: as above
Protocol: as §1, §2

[10] = target: T2, scFv-P3F2-Fc; experiment: ELISA, scFv-Fc against MSLT-R1-mFc; x axis con.(nM), the sheet does not say whose concentration [right panel]
[11] = target: T3, scFv-P1A6E-Fc; experiment: ELISA, scFv-Fc against MSLT-R1-mFc; x axis con.(nM), the sheet does not say whose concentration [left panel]
[12] = target: T3, scFv-P1A6E-Fc; experiment: SPR Biacore T200, antibody captured by anti-human IgG (Fc), human mesothelin as analyte, 25 C
Protocol: (§3) To quantitatively analyze the binding of an antibody to human mesothelin, the affinity and kinetic parameters of single-chain antibody and monoclonal antibody of P1A6E and P3F2 were measured by capture method using Biacore T200 system (from GE). An anti-human IgG (Fc) antibody (purchased from GE) was coupled to carboxymethyl dextran surface of sensor chip […] through primary amino with NHS/EDC coupling according to the manufacturer's instructions. Measurements were performed in 1×HBS-EP+working buffer at 25° C., 30 μl/min, and regeneration condition was 3 M MgCl2, 10 μl/min for 30 seconds. In each round of the testing cycle, the antibody to be tested is firstly captured onto the chip. Analyte (human mesothelin) of a certain concentration flowed over the chip surface. Due to the produced SPR signal, the interaction between human mesothelin and the captured antibody can be detected. The detected signal is defined as resonance unit (RU), which was plotted vs time (second) to obtain the corresponding binding curve and dissociation curve. In different test cycles, concentrations of human mesothelin were 10 nM, 20 nM, 40 nM, 80 nM and 160 nM, respectively. The resulting curves were evaluated using Biacore T200 evaluation software and the affinity KD values were calculated. FIG. 5 and FIG. 6 show kinetic curves of the monoclonal antibodies P1A6E and P3F2, in a Biacore Affinity Assay, respectively.

[13] = target: T2, scFv-P3F2-Fc; experiment: as above
Protocol: as §3

B1: single chain antibody P1A6E (phage-displayed, single phage ELISA) (scFv)
scFv: QVQLEQSGLGLVKPSQTLSLTCAISGDTVSSDSAAWNWIRQSPSRGLEWLGRTYYRSKWFNDYAVSVKGRITINSDTSKNQFSLQLNSVTPEDTAVYYCARSNSYYYYAMDVWGQGTLVTVSSGGGGSGGGGSGGGGSQAVLTQPSSLSASPGASASLTCTLRSGINVGIYRIYWYQQRPGSPPQILLTYKSDSDKYQGSGVPSRFSGSKDASANAGILLISGLQSEDEADYYCMIWHSGGWVFGGGTKVTVLG
notes: the fusion to the phage coat protein is not described
B1: no binding [1].

B2: human mesothelin region R1A (296E-337D)-muFc fusion protein (Fc fusion)
chain: EVEKTACPSGKKAREIDESLIFYKKWELEACVDAALLATQMD
notes: not shown: mouse Fc fragment of vector pCMV-V5-muFc
B2: binds [2]; binds [3].

B3: chimeric antigen receptor P1A6E-BBZ on CTL cells (receptor)
chain: QVQLEQSGLGLVKPSQTLSLTCAISGDTVSSDSAAWNWIRQSPSRGLEWLGRTYYRSKWFNDYAVSVKGRITINSDTSKNQFSLQLNSVTPEDTAVYYCARSNSYYYYAMDVWGQGTLVTVSSGGGGSGGGGSGGGGSQAVLTQPSSLSASPGASASLTCTLRSGINVGIYRIYWYQQRPGSPPQILLTYKSDSDKYQGSGVPSRFSGSKDASANAGILLISGLQSEDEADYYCMIWHSGGWVFGGGTKVTVLGTTTPAPRPPTPAPTIASQPLSLRPEACRPAAGGAVHTRGLDFACDIYIWAPLAGTCGVLLLSLVITLYCKRGRKKLLYIFKQPFMRPVQTTQEEDGCSCRFPEEEEGGCELRVKFSRSADAPAYKQGQNQLYNELNLGRREEYDVLDKRRGRDPEMGGKPRRKNPQEGLYNELQKDKMAEAYSEIGMKGERRRGKGHDGLYQGLSTATKDTYDALHMQALPPR
notes: Expressed on human CTL cells by lentivirus; also called scFv(MSLN)-CD8-CD137-CD3 zeta
For B3, the “Positive rate of CTL cells transfection” value [4] was 85%, the “CYTOTOXICITY (%), effector target ratio 1:1, LDH release, 18 h” value [5] was 56.7% and the “CYTOTOXICITY (%), effector target ratio 1:3, LDH release, 18 h” value [5] was 25.3%. The “CYTOTOXICITY (%), effector target ratio 3:1, LDH release, 18 h” value [5] was 86.5%.

B4: human mesothelin region R1AB (296E-359L)-muFc fusion protein (Fc fusion)
chain: EVEKTACPSGKKAREIDESLIFYKKWELEACVDAALLATQMDRVNAIPFTYEQLDVLKHKLDEL
notes: as for B2
B4: binds [6]; binds [7].

B5: binds [8]; binds [9].

B6: single chain antibody P3F2 (phage-displayed, single phage ELISA) (scFv)
scFv: QMQLVQSGAEVKKPGASVKVSCKASGYTFTSYYMHWVRQAPGQGLEWMGIINPSGGSTSYAQKFQGRVTMTRDTSTSTVYMELSSLRSEDTAVYYCASSRSGTTVVNHDAFDIWGKGTTVTVSSGGGGSGGGGSGGGGSDIQLTQSPSSLSASVGDRVTITCRASQVISRALAWYQQTPGKPPKLLIYDASNLQSGVPSRFSGSGSGTDFTLTISRLQPEDFATYYCQQFNSYPLTFGGGTKLEIKR
notes: as for B1
B6: no binding [1].

B7: human mesothelin region R1 (E296-T390)-muFc fusion protein (Fc fusion)
chain: EVEKTACPSGKKAREIDESLIFYKKWELEACVDAALLATQMDRVNAIPFTYEQLDVLKHKLDELYPQGYPESVIQHLGYLFLKMSPEDIRKWNVT
notes: also called region 1; not shown: mouse Fc fragment of vector pCMV-V5-muFc
B7: binds [10]; binds [11].

B8 gave a Kd [12] of 18.9 nM, a koff [12] of 0.00156 s⁻¹ and a kon [12] of 82500 M⁻¹ s⁻¹. It also gave a Kd [13] of 16.2 nM, a koff [13] of 0.000935 s⁻¹ and a kon [13] of 57700 M⁻¹ s⁻¹.
